From patent US20230002480A1

How the values were obtained:
Test in all cases: cell-based or functional assay
[1] = molecular target: HIV-1 Env of pseudovirus PVO.4 (HIV-1)
[2] = molecular target: HIV-1 Env of pseudovirus ZM249M.PL1 (HIV-1)
[3] = molecular target: HIV-1 Env of pseudovirus TRO.11 (HIV-1)
[4] = molecular target: HIV-1 Env of pseudovirus ZM214M.PL15 (HIV-1)
[5] = molecular target: HIV-1 Env of pseudovirus Q461.e2 (HIV-1)
[6] = molecular target: HIV-1 Env of pseudovirus Ce0682_E4 (HIV-1)
[7] = molecular target: HIV-1 Env of pseudovirus R3265.c06 (HIV-1)
[8] = molecular target: HIV-1 Env of pseudovirus Ce2060_G9 (HIV-1)
[9] = molecular target: HIV-1 Env of pseudovirus Q259.d2.17 (HIV-1)
[10] = molecular target: HIV-1 Env of pseudovirus 6540.v4.c1 (HIV-1)
[11] = molecular target: HIV-1 Env of pseudovirus 235-47 (HIV-1)
[12] = molecular target: HIV-1 Env of pseudovirus P1981_C5_3 (HIV-1)
[13] = molecular target: HIV-1 Env of pseudovirus 62357_14_D3_4589 (HIV-1)
[14] = molecular target: HIV-1 Env of pseudovirus WEAU_d15_410_787 (HIV-1)
[15] = molecular target: HIV-1 Env of pseudovirus HIV-0013095-2.11 (HIV-1)
[16] = molecular target: HIV-1 Env of pseudovirus 6952.v1.c20 (HIV-1)
[17] = molecular target: HIV-1 Env of pseudovirus X2088_c9 (HIV-1)
[18] = molecular target: HIV-1 Env of pseudovirus R1166.c01 (HIV-1)
[19] = molecular target: HIV-1 Env of pseudovirus HIV-16845-2.22 (HIV-1)
[20] = molecular target: HIV-1 Env of pseudovirus REJO4541.67 (HIV-1)
[21] = molecular target: HIV-1 Env of pseudovirus C1080.c03 (HIV-1)
[22] = molecular target: HIV-1 Env of pseudovirus X1632_S2_B10 (HIV-1)
[23] = molecular target: HIV-1 Env of pseudovirus QH0692.42 (HIV-1)
[24] = molecular target: HIV-1 Env of pseudovirus MS208.A1 (HIV-1)
[25] = molecular target: HIV-1 Env of pseudovirus 3016.v5.c45 (HIV-1)
[26] = molecular target: HIV-1 Env of pseudovirus 3365.v2.c2 (HIV-1)
[27] = molecular target: HIV-1 Env of pseudovirus Du156.12 (HIV-1)
[28] = molecular target: HIV-1 Env of pseudovirus T257-31 (HIV-1)
[29] = molecular target: HIV-1 Env of pseudovirus Ce2010_F5 (HIV-1)
[30] = molecular target: HIV-1 Env of pseudovirus Du422.1 (HIV-1)

VRC01 (antibody)
IC50, titer in TZM.bl cells [1]: 0.22 µg/mL
IC80, titer in TZM.bl cells [1]: 1.2 µg/mL
IC50, titer in TZM.bl cells [2]: 0.05 µg/mL
IC80, titer in TZM.bl cells [2]: 0.23 µg/mL
IC50, titer in TZM.bl cells [3]: 0.21 µg/mL
IC80, titer in TZM.bl cells [3]: 0.83 µg/mL
IC50, titer in TZM.bl cells [4]: 0.44 µg/mL
IC80, titer in TZM.bl cells [4]: 2.6 µg/mL
IC50, titer in TZM.bl cells [5]: 0.49 µg/mL
IC80, titer in TZM.bl cells [5]: 1.6 µg/mL
IC50, titer in TZM.bl cells [6]: 0.08 µg/mL
IC80, titer in TZM.bl cells [6]: 0.48 µg/mL
IC50, titer in TZM.bl cells [7]: 0.45 µg/mL
IC80, titer in TZM.bl cells [7]: 1.88 µg/mL
IC50, titer in TZM.bl cells [8]: 0.29 µg/mL
IC80, titer in TZM.bl cells [8]: 1.48 µg/mL
IC50, titer in TZM.bl cells [9]: 0.17 µg/mL
IC80, titer in TZM.bl cells [9]: 0.54 µg/mL
IC50, titer in TZM.bl cells [10]: > 50 µg/mL
IC80, titer in TZM.bl cells [10]: > 50 µg/mL
IC50, titer in TZM.bl cells [11]: 0.04 µg/mL
IC80, titer in TZM.bl cells [11]: 0.17 µg/mL
IC50, titer in TZM.bl cells [12]: 0.46 µg/mL
IC80, titer in TZM.bl cells [12]: 1.26 µg/mL
IC50, titer in TZM.bl cells [13]: 0.96 µg/mL
IC80, titer in TZM.bl cells [13]: 4.68 µg/mL
IC50, titer in TZM.bl cells [14]: 0.12 µg/mL
IC80, titer in TZM.bl cells [14]: 0.26 µg/mL
IC50, titer in TZM.bl cells [15]: 0.11 µg/mL
IC80, titer in TZM.bl cells [15]: 0.33 µg/mL
IC50, titer in TZM.bl cells [16]: 0.04 µg/mL
IC80, titer in TZM.bl cells [16]: 0.12 µg/mL
IC50, titer in TZM.bl cells [17]: > 50 µg/mL
IC80, titer in TZM.bl cells [17]: > 50 µg/mL
IC50, titer in TZM.bl cells [18]: 1.7 µg/mL
IC80, titer in TZM.bl cells [18]: 4.58 µg/mL
IC50, titer in TZM.bl cells [19]: 2.8 µg/mL
IC80, titer in TZM.bl cells [19]: 12.7 µg/mL
IC50, titer in TZM.bl cells [20]: 0.06 µg/mL
IC80, titer in TZM.bl cells [20]: 0.25 µg/mL
IC50, titer in TZM.bl cells [21]: 3.4 µg/mL
IC80, titer in TZM.bl cells [21]: 14.4 µg/mL
IC50, titer in TZM.bl cells [22]: 0.12 µg/mL
IC80, titer in TZM.bl cells [22]: 0.74 µg/mL
IC50, titer in TZM.bl cells [23]: 1.5 µg/mL
IC80, titer in TZM.bl cells [23]: 4.8 µg/mL
IC50, titer in TZM.bl cells [24]: 0.1 µg/mL
IC80, titer in TZM.bl cells [24]: 0.46 µg/mL
IC50, titer in TZM.bl cells [25]: 0.16 µg/mL
IC80, titer in TZM.bl cells [25]: 0.42 µg/mL
IC50, titer in TZM.bl cells [26]: 0.06 µg/mL
IC80, titer in TZM.bl cells [26]: 0.17 µg/mL
IC50, titer in TZM.bl cells [27]: 0.09 µg/mL
IC80, titer in TZM.bl cells [27]: 0.193 µg/mL
IC50, titer in TZM.bl cells [28]: 2.8 µg/mL
IC80, titer in TZM.bl cells [28]: 8.66 µg/mL
IC50, titer in TZM.bl cells [29]: 0.32 µg/mL
IC80, titer in TZM.bl cells [29]: 1.07 µg/mL
IC50, titer in TZM.bl cells [30]: > 50 µg/mL
IC80, titer in TZM.bl cells [30]: > 50 µg/mL
